This passage reports protein stability index results from the supplement of paper PMC10567573.

The labels stand for the following.
B1: KRT18 (parent)
chain: PQVRDWSHYFKIIEDLRAQIFANT
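Further: lentivirally expressed fusions sorted by FACS into six bins by GFP to DsRed ratio, PSI derived from sequencing read proportions per bin multiplied by bin number.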

The variants in the data set derive from B1. The experiment in a line: protein stability index of a GFP-peptide fusion (GPS, HEK-293T) (PSI 1-6); higher = more stable. Particulars: c terminus: a fixed tail appended.
PQVRDASHYFKIIEDLRAQIFANT: the protein stability index is 1.69.

Take PQVRDDSHYFKIIEDLRAQIFANT: the protein stability index is 2.61. Consider PQVRDNSHYFKIIEDLRAQIFANT, for which the protein stability index was 2.18.

With PQVRDWSMYFKIIEDLRAQIFANT, the protein stability index was 2.28. With PQVRDWSLYFKIIEDLRAQIFANT, the protein stability index was found to be 2.43. Turning to PQVRDWSDYFKIIEDLRAQIFANT, the protein stability index was 1.92.

On to PQVRDWSYYFKIIEDLRAQIFANT, for which the protein stability index was determined as 2.08. PQVRDWSPYFKIIEDLRAQIFANT: the protein stability index was determined as 1.83. Regarding PQVRDWSVYFKIIEDLRAQIFANT, the protein stability index turned out to be 2.17. In the case of PQVRDWSSYFKIIEDLRAQIFANT it was 2.23; in that of PQVRDWSCYFKIIEDLRAQIFANT, 1.78. As for PQVRDWSTYFKIIEDLRAQIFANT, the protein stability index was found to be 1.6. In the case of PQVRDWSAYFKIIEDLRAQIFANT it was 2.06. For PQVRDWSEYFKIIEDLRAQIFANT, the protein stability index was found to be 2.49.

For PQVRDWSQYFKIIEDLRAQIFANT, the protein stability index came to 1.83.

Take PQVRDWSFYFKIIEDLRAQIFANT: the protein stability index stood at 1.59. In the case of PQVRDWSKYFKIIEDLRAQIFANT it was 2.59; in that of PQVRDWSWYFKIIEDLRAQIFANT, 1.34; in that of PQVRDWSNYFKIIEDLRAQIFANT, 2.24. Consider PQVRDWSGYFKIIEDLRAQIFANT, for which the protein stability index is 2.58. For PQVRDWSRYFKIIEDLRAQIFANT the value was 1.98. Take PQVRDWSIYFKIIEDLRAQIFANT: the protein stability index came to 2.4. With PQVRDWSHYFKIDEDLRAQIFANT, the protein stability index amounted to 2.9. PQVRDWSHYFKILEDLRAQIFANT: the protein stability index came out at 2.27.

In the case of PQVRDWSHYFKIREDLRAQIFANT, the protein stability index was 2.69. In the case of PQVRDWSHYFKIQEDLRAQIFANT, the protein stability index turned out to be 2.75. Consider PQVRDWSHYFKIFEDLRAQIFANT, for which the protein stability index worked out at 2.12.

For PQVRDWSHYFKIHEDLRAQIFANT, the protein stability index stood at 2.16. With PQVRDWSHYFKIPEDLRAQIFANT, the protein stability index was 2.63. For PQVRDWSHYFKIGEDLRAQIFANT the value was 2.9; for PQVRDWSHYFKIMEDLRAQIFANT, 1.62.

In the case of PQVRDWSHYFKIEEDLRAQIFANT, the protein stability index came to 2.32. As to PQVRDWSHYFKINEDLRAQIFANT, the protein stability index is 2.38.

PQVRDWSHYFKISEDLRAQIFANT: the protein stability index is 2.15.

In the case of PQVRDWSHYFKIKEDLRAQIFANT, the protein stability index worked out at 1.79. Turning to PQVRDWSHYFKICEDLRAQIFANT, the protein stability index worked out at 2.3.

Take PQVRDWSHYFKIAEDLRAQIFANT: the protein stability index amounted to 2.77. Take PQVRNWSHYFKIIEDLRAQIFANT: the protein stability index came to 2.16. For PQVRPWSHYFKIIEDLRAQIFANT, the protein stability index came out at 1.87. PQVRIWSHYFKIIEDLRAQIFANT: the protein stability index worked out at 2.46. For PQVRVWSHYFKIIEDLRAQIFANT the value was 2.56; for PQVRAWSHYFKIIEDLRAQIFANT, 2.93. On to PQVRFWSHYFKIIEDLRAQIFANT, for which the protein stability index amounted to 1.88. For PQVRQWSHYFKIIEDLRAQIFANT, the protein stability index worked out at 2.44. As for PQVRGWSHYFKIIEDLRAQIFANT, the protein stability index is 1.99. As for PQVRMWSHYFKIIEDLRAQIFANT, the protein stability index came to 2.57.

In the case of PQVRRWSHYFKIIEDLRAQIFANT, the protein stability index amounted to 3.09.

Consider PQVRLWSHYFKIIEDLRAQIFANT, for which the protein stability index was 2.88. Consider PQVRWWSHYFKIIEDLRAQIFANT, for which the protein stability index stood at 1.63. As to PQVRSWSHYFKIIEDLRAQIFANT, the protein stability index turned out to be 2.5. Turning to PQVRCWSHYFKIIEDLRAQIFANT, the protein stability index came out at 2.2. Turning to PQVRKWSHYFKIIEDLRAQIFANT, the protein stability index came to 3.2. In the case of PQVRHWSHYFKIIEDLRAQIFANT it was 1.68; in that of PQVRYWSHYFKIIEDLRAQIFANT, 2.15. As to PQVREWSHYFKIIEDLRAQIFANT, the protein stability index is 2.8. As for PQVRTWSHYFKIIEDLRAQIFANT, the protein stability index was 2.53.

For the variant PQVRDWSHRFKIIEDLRAQIFANT, the protein stability index turned out to be 2.25.

Take PQVRDWSHMFKIIEDLRAQIFANT: the protein stability index worked out at 1.89. In the case of PQVRDWSHQFKIIEDLRAQIFANT it was 2.42; in that of PQVRDWSHIFKIIEDLRAQIFANT, 2.12. For PQVRDWSHPFKIIEDLRAQIFANT the value was 2.36.

Turning to PQVRDWSHTFKIIEDLRAQIFANT, the protein stability index was found to be 1.81. For PQVRDWSHHFKIIEDLRAQIFANT the value was 2.5. Regarding PQVRDWSHDFKIIEDLRAQIFANT, the protein stability index turned out to be 2.95. Turning to PQVRDWSHSFKIIEDLRAQIFANT, the protein stability index worked out at 2.56. Consider PQVRDWSHNFKIIEDLRAQIFANT, for which the protein stability index was found to be 2.71.

On to PQVRDWSHGFKIIEDLRAQIFANT, for which the protein stability index amounted to 1.75. For PQVRDWSHCFKIIEDLRAQIFANT the value was 1.97; for PQVRDWSHKFKIIEDLRAQIFANT, 1.76; for PQVRDWSHAFKIIEDLRAQIFANT, 2.24. With PQVRDWSHVFKIIEDLRAQIFANT, the protein stability index came to 2.48.

Take PQVRDWSHFFKIIEDLRAQIFANT: the protein stability index was 1.94. In the case of PQVRDWSHEFKIIEDLRAQIFANT, the protein stability index came to 2.55. As to PQVRDWSHWFKIIEDLRAQIFANT, the protein stability index came to 2.5. In the case of PQVRDWSHLFKIIEDLRAQIFANT it was 2.17; in that of PQVRDWSHYFKTIEDLRAQIFANT, 2.78; in that of PQVRDWSHYFKKIEDLRAQIFANT, 1.85. As for PQVRDWSHYFKFIEDLRAQIFANT, the protein stability index came to 1.9.

As to PQVRDWSHYFKMIEDLRAQIFANT, the protein stability index was found to be 1.92.

For the variant PQVRDWSHYFKYIEDLRAQIFANT, the protein stability index worked out at 2.2. On to PQVRDWSHYFKPIEDLRAQIFANT, for which the protein stability index is 2.24. Turning to PQVRDWSHYFKSIEDLRAQIFANT, the protein stability index is 2.3. Take PQVRDWSHYFKNIEDLRAQIFANT: the protein stability index was found to be 3.55. For the variant PQVRDWSHYFKAIEDLRAQIFANT, the protein stability index was 2.53. As to PQVRDWSHYFKEIEDLRAQIFANT, the protein stability index was determined as 2.45. Consider PQVRDWSHYFKVIEDLRAQIFANT, for which the protein stability index is 2.04. With PQVRDWSHYFKHIEDLRAQIFANT, the protein stability index was found to be 2.36. In the case of PQVRDWSHYFKGIEDLRAQIFANT it was 2.72; in that of PQVRDWSHYFKLIEDLRAQIFANT, 2.27; in that of PQVRDWSHYFKQIEDLRAQIFANT, 2.41. Consider PQVRDWSHYFKDIEDLRAQIFANT, for which the protein stability index was determined as 3.17.

PQVRDWSHYFKWIEDLRAQIFANT: the protein stability index came to 3.05.

As for PQVRDWSHYFKRIEDLRAQIFANT, the protein stability index was 2.55.

Turning to PQVRDWSHYFKCIEDLRAQIFANT, the protein stability index stood at 2.38.
